System: EMT6 cells
Test: EMT6 syngeneic breast tumor model, tumor growth and survival
Type: in vivo, BALB/c mice
Settings: NP137 20 mg/Kg loading then 10 mg/Kg i.v.; Venetoclax 5 mg/Kg oral gavage; vs isotypic control antibody
Protocol: FIG. 8. Combining netrin-1 interference and BH3 mimetics inhibits tumor growth in preclinical in vivo and ex vivo models. ((A,B,C): Combining netrin-1 interference and Bcl-2 inhibition restrains tumor growth in a syngeneic breast cancer model. EMT6 cells were engrafted in BALB/c mice and, once tumors reached a volume of 50 mm^3, treated with isotypic (Iso-mAb) or NP137 antibodies and the Bcl-2 inhibitor Venetoclax, as single agents or in combination. Tumor volumes were measured at the indicated days after the first treatment (n=9, ** p<0.01, ordinary two-way ANOVA with Tukey's multiple comparisons test) (A,B). Survival rate was assessed at sacrifice of mice with tumors more than 500 mm^3 (C). (D,E,F): Combined treatment is efficient to induce apoptosis in human ex vivo slices. Cleaved active caspase-3-positive cells were assessed by IHC staining in fresh ex vivo breast tumor tissue slices. […]
FIG. 9. […] 24 hours later, apoptosis was quantified by Annexin V/propidium iodide (PI) staining. EC50 values were calculated using nonlinear regression of Dose-response curves with GraphPad Prism software. […] Apoptosis was then evaluated by 5′,6,6′-tetrachloro-1,1′,3,3′-tetraethylbenzimi-dazolylcarbocyanine iodide (JC-1) dye staining, using NucleoCounter NC3000 (n=2, *p<0.05, ordinary two-way ANOVA with Tukey's multiple comparisons test). […]

B1: NP137: humanized anti-netrin-1 monoclonal antibody, VH SEQ ID NO: 22, VL SEQ ID NO: 16, human IgG1 (antibody, V domains shown)
VH: QVQLQQSGPGLVKPSQTLSLTCAISGYTFTSYNMHWVRQATGQGLEWMGAIYPGNGDTSYNQKFKGRLTISKDTSKNQVVLTMTNMDPVDTATYYCARGGTGFAYWGQG
VL: DIQMTQSPSSLSASVGDRVTITCKASQSVSNDVAWYQQKPGQAPRLLIYYASNRYTGIPPRFSGSGYGTDFTLTINNIESEDAAYYFCQQDYSSPWTFGQG
modifications: human IgG1 constant region; humanized variant; MISC_FEATURE - CDR according to IGMT
B1 was tested, and the tumor growth was “no effect on tumor growth”.

— patent publication US20250215071A1, “Novel Mcl-1 inhibitor and combination of Mcl-1 and a BH3 mimetic, such as a Bcl-2 inhibitor” (NETRIS PHARMA, priority 2022, published 2025)
